Data: patent publication US20220307010A1 (published 2022)

Kd (TIGIT55-14): 139 nM
Kd (TIGIT55-11): 327 nM
Kd (TIGIT55-08): 113 nM
Kd (TIGIT55-05): 97.6 nM
Kd (TIGIT55-01): 15.9 nM
Kd (TIGIT55-06): 153 nM
Kd (TIGIT55-13): 112 nM
B1: hTIGIT (receptor)
chain: MMTGTIETTGNISAEKGGSIILQCHLSSTTAQVTQVNWEQQDQLLAICNADLGWHISPSFKDRVAPGPGLGLTLQSLTVNDTGEYFCIYHTYPDGTYTGRIFLEVLESSVAEHGARFQIP
modifications: biotinylated antigen (site not given)
